Measured values as given in PMC4485320.

What was measured:
[1] = target: E. coli thioredoxin reductase (Escherichia coli) (UniProt P0A9P4)
[2] = target: E. coli thioredoxin reductase (Escherichia coli) (UniProt P0A9P4); remark: listed apart in the source

Chain of UniProt P0A9P4 (P0A9P4 whole entry): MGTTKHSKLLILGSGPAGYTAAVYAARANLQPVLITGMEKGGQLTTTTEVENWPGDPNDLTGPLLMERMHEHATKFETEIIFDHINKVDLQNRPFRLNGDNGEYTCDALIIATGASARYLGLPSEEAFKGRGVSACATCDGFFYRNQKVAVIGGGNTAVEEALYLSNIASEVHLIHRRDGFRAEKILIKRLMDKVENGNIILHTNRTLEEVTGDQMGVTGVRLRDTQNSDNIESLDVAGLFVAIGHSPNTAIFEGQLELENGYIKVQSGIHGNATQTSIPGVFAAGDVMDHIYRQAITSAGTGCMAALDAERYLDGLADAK

kcat/KM of the reduction of Trx by TrxR [1]: > 1e+06 M⁻¹ s⁻¹
kcat of the reduction of the Trx variant by TrxR (Michaelis-Menten kinetics, DTNB/NADPH assay) [2]: 10 s⁻¹
Substance: Escherichia coli thioredoxin, wild type (from UniProt P0AA25 1-109) (natural protein)
